Results reported in PMC13083842 (2026).

T1: soluble IL-6 receptor (sIL-6R) (human (from the printed accession …, UniProt P08887 20-355))
T1 chain: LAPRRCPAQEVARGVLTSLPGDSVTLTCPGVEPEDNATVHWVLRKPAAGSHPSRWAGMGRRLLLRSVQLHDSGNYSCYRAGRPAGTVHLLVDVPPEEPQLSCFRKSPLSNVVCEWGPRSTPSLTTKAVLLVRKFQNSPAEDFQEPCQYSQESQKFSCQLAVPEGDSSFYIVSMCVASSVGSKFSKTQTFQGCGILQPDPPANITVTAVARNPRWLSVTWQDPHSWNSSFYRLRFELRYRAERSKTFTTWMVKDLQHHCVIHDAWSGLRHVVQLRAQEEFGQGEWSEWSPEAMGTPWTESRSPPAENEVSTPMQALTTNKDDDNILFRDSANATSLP

B1: siltuximab-TGN 1:1 (antibody, V domains shown)
VH: EVQLVESGGKLLKPGGSLKLSCAASGFTFSSFAMSWFRQSPEKRLEWVAEISSGGSYTYYPDTVTGRFTISRDNAKNTLYLEMSSLRSEDTAMYYCARGLWGYYALDYWGQGTSVTVSS
VL: QIVLIQSPAIMSASPGEKVTMTCSASSSVSYMYWYQQKPGSSPRLLIYDTSNLASGVPVRFSGSGSGTSYSLTISRMEAEDAATYYCQQWSGYPYTFGGGTKLEIK
modifications: Tris-GalNAc-PEG5 (TGN) on accessible primary amines (lysines), not site-specific; coupling ratio 1:1; GPR = 0.2 for the antibody | Tris-GalNAc-PEG5 (TGN) on accessible primary amines (lysines), not site-specific; coupling ratio 1:1; GPR = 0.2 for the antibody
B2: siltuximab (antibody, V domains shown)
VH: B1 VH
VL: B1 VL
B3: siltuximab-TGN 1:5 (antibody, V domains shown)
VH: B1 VH
VL: B1 VL
modifications: Tris-GalNAc-PEG5 (TGN) on accessible primary amines (lysines), not site-specific; coupling ratio 1:5 | Tris-GalNAc-PEG5 (TGN) on accessible primary amines (lysines), not site-specific; coupling ratio 1:5
B4: siltuximab-TGN 1:10 (antibody, V domains shown)
VH: B1 VH
VL: B1 VL
modifications: Tris-GalNAc-PEG5 (TGN) on accessible primary amines (lysines), not site-specific; coupling ratio 1:10 | Tris-GalNAc-PEG5 (TGN) on accessible primary amines (lysines), not site-specific; coupling ratio 1:10
B5: tocilizumab-TGN 1:10 (antibody, V domains shown)
VH: QVQLQESGPGLVRPSQTLSLTCTVSGYSITSDHAWSWVRQPPGRGLEWIGYISYSGITTYNPSLKSRVTMLRDTSKNQFSLRLSSVTAADTAVYYCARSLARTTAMDYWGQGSLVTVSS
VL: DIQMTQSPSSLSASVGDRVTITCRASQDISSYLNWYQQKPGKAPKLLIYYTSRLHSGVPSRFSGSGSGTDFTFTISSLQPEDIATYYCQQGNTLPYTFGQGTKVEIK
modifications: Tris-GalNAc-PEG5 (TGN) on accessible primary amines (lysines), not site-specific; coupling ratio 1:10; GPR 4.75 for the antibody | Tris-GalNAc-PEG5 (TGN) on accessible primary amines (lysines), not site-specific; coupling ratio 1:10; GPR 4.75 for the antibody
B6: tocilizumab-TGN 1:1 (antibody, V domains shown)
VH: B5 VH
VL: B5 VL
modifications: Tris-GalNAc-PEG5 (TGN) on accessible primary amines (lysines), not site-specific; coupling ratio 1:1; GPR = 0.35 for the antibody | Tris-GalNAc-PEG5 (TGN) on accessible primary amines (lysines), not site-specific; coupling ratio 1:1; GPR = 0.35 for the antibody
B7: tocilizumab (antibody, V domains shown)
VH: B5 VH
VL: B5 VL
B8: tocilizumab-TGN 1:25 (antibody, V domains shown)
VH: B5 VH
VL: B5 VL
modifications: Tris-GalNAc-PEG5 (TGN) on accessible primary amines (lysines), not site-specific; coupling ratio 1:25; GPR of 15.36 for the antibody | Tris-GalNAc-PEG5 (TGN) on accessible primary amines (lysines), not site-specific; coupling ratio 1:25; GPR of 15.36 for the antibody
B9: tocilizumab-TGN 1:5 (antibody, V domains shown)
VH: B5 VH
VL: B5 VL
modifications: Tris-GalNAc-PEG5 (TGN) on accessible primary amines (lysines), not site-specific; coupling ratio 1:5; GPR 2.51 for the antibody | Tris-GalNAc-PEG5 (TGN) on accessible primary amines (lysines), not site-specific; coupling ratio 1:5; GPR 2.51 for the antibody
B10: sIL-6R-TGN 1:1 (receptor)
chain: T1 chain
modifications: Tris-GalNAc-PEG5 (TGN) on accessible primary amines (lysines), not site-specific; coupling ratio 1:1; GPR could not be determined
B11: sIL-6R-TGN 1:10 (receptor)
chain: T1 chain
modifications: Tris-GalNAc-PEG5 (TGN) on accessible primary amines (lysines), not site-specific; coupling ratio 1:10; GPR could not be determined
B12: sIL-6R-TGN 1:5 (receptor)
chain: T1 chain
modifications: Tris-GalNAc-PEG5 (TGN) on accessible primary amines (lysines), not site-specific; coupling ratio 1:5; GPR could not be determined

Molecular target: T2, interleukin-6 (IL-6) (human, UniProt P05231 30-212)
Assay: SPR

T2 sequence (P05231 30-212): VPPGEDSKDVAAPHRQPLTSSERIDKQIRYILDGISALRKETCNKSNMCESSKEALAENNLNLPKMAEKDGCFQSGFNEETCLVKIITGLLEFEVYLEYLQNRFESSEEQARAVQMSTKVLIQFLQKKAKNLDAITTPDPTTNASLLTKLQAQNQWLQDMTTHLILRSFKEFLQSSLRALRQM

Row | Binder | Kd [nM]
1 | B1 | < 0.019
2 | B2 | < 0.022
3 | B3 | < 0.027
4 | B4 | < 0.036

Molecular target: T1, soluble IL-6 receptor (sIL-6R)
Assay: SPR

Row | Binder | Kd [nM]
5 | B5 | 0.212
6 | B6 | < 0.038
7 | B7 | 0.068
8 | B8 | 0.328
9 | B9 | 0.093

Molecular target: T2, interleukin-6 (IL-6)
Assay: SPR
Remark: another data set of the same source

Row | Binder | Kd [nM]
10 | B10 | 166
11 | B11 | 428
12 | B12 | 230
